Data on two molecules can be found in publication PMC3520109 (mBio, 2012).

One data set deals with 43A-c. The settings on record: read-out: apparent Km; 100 mM citrate pH 6, 1 g/liter BSA, 50°C.
Substrate in the data set “purified protein”: O=[N+]([O-])c1ccc(O[C@@H]2O[C@H](CO)[C@@H](O)[C@H](O)[C@H]2O)cc1
The experiment in a line: purified protein. The settings on record: 100 mM citrate pH 6, 1 g/liter BSA, 50°C.

What is called Km is the concentration of substrate that gives half-maximal velocity. Take `O=[N+]([O-])c1ccc(O[C@@H]2OC[C@@H](O)[C@H](O)[C@H]2O)cc1` [pNPX]: the Km in the data set with 43A-c stood at 600 µM.

B1: Bgl1C (Thermobifida fusca) (protein)
chain: TSQSTTPLGNLEETPKPDIRFPSDFVWGVATASFQIEGSTTADGRGPSIWDTFCATPGKVENGDTGDPACDHYNRYRDDVALMRELGVGAYRFSIAWPRIQPEGKGTPVEAGLDFYDRLVDCLLEAGIEPWPTLYHWDLPQALEDAGGWPNRDTAKRFADYAEIVYRRLGDRITNWNTLNEPWCSAFLGYASGVHAPGRQEPAAALAAAHHLMLGHGLAAAVMRDLAGQAGRSVRIGVAHNQTTVRPYTDSEADRDAARRIDALRNRIFTEPLVKGRYPEDLIEDVAAVTDYSFVQDGDLKTISANLDMMGVNFYNPSWVSGNRENGGSDRLPDEGYSPSVGSEHVVEVDPGLPVTAMGWPIDPTGLYDTLTRLANDYPGLPLYITENGAAFEDKVVDGAVHDTERIAYLDSHLRAAHAAIEAGVPLKGYFAWSFMDNFEWALGYGKRFGIVHVDYESQTRTVKDSGWWYSRVMRNGGIFGQE
The kcat is the number of substrate molecules converted per active site and unit of time at saturation. In the case of B1, in the data set “purified protein”, the Km worked out at 600 µM and the kcat is 2.08 s⁻¹.
